From patent US20250313631A1 (HUMMINGBIRD BIOSCIENCE PTE, published 2025) come the findings set out here.

Assay [1] has as its target T1, recombinant human VISTA (His-tagged) (human, UniProt Q9H7M9 33-194).
T1 construct: bought soluble protein (Sino Biological); also called hVISTA; human VISTA polypeptide
The assay is described as follows: ELISA, plate coated with human VISTA.

Assay [2] deals with T2, recombinant cynomolgus macaque VISTA (His-tagged) (cynomolgus macaque, UniProt A0A7N9IB00 33-194).
T2 construct: also called cyno VISTA; cynomolgus monkey VISTA
The assay is described as follows: BLI (Octet QK384), His-tagged VISTA on anti-Penta-HIS tips, antibody as analyte.
Description: (§1) All measurements were performed at 25° C. with agitation at 1000 rpm. Kinetic measurements for antigen binding were performed by loading anti-VISTA antibody at different concentrations (indicated in the Figures) for 120 s, followed by a 120 s dissociation time by transferring the biosensors into assay buffer containing wells. Sensograms were referenced for buffer effects and then fitted using the Octet QK384 user software (Pall ForteBio, USA).
(§2) Kinetic responses were subjected to a global fitting using a one site binding model to obtain values for association (kon), dissociation (koff) rate constants and the equilibrium dissociation constant (KD). Only curves that could be reliably fitted with the software (R²>0.90) were included in the analysis.

In assay [3] the target is T3, recombinant mouse VISTA (His-tagged) (mouse, UniProt Q9D659 33-191).
T3 construct: also called murine VISTA; mVISTA
T3 sequence (looked up): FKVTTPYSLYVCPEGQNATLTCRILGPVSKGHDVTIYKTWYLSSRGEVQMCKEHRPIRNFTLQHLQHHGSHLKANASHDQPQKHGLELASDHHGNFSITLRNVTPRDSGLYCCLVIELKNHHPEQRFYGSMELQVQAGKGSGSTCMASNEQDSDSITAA
The description is as above.
Description: as §1, §2

A further assay concerns the target T4, human CD47 (human, UniProt Q08722 19-139).
T4 construct: also called hCD47
Kind of assay: BLI (Octet), His-tagged hCD47 on anti-Penta-HIS biosensor, antibody 1500-46.9 nM.

In assay [4] the target is T1, recombinant human VISTA (His-tagged). Kind of assay: BLI (Octet QK384): His-tagged human VISTA on anti-Penta-HIS tips, V4 as analyte; value of the line above the sensorgram, which differs from the table below it.
Description: as §1, §2
For assay [5] the target is unchanged. Kind of assay: antigen-binding ELISA; HMBD-002 10 mg/mL in F3, day 0.
Assay [6] shares this target. The assay is described as follows: antigen-binding ELISA; HMBD-002 10 mg/mL in F5, day 0.
Assay [7] shares this target. Kind of assay: antigen-binding ELISA; HMBD-002 10 mg/mL in F7, day 0.
The target is the same in assay [8]. Kind of assay: antigen-binding ELISA; HMBD-002 10 mg/mL in F8, day 0.
Assay [9] has the same target. Kind of assay: antigen-binding ELISA; HMBD-002 10 mg/mL in F9, day 0.
Assay [10] shares this target. The assay is described as follows: antigen-binding ELISA; HMBD-002 in F2, day 30 at 40°C.
Assay [11] shares this target. Kind of assay: antigen-binding ELISA; HMBD-002 in F7, day 10 at 40°C.
Assay [12] has the same target. The assay is described as follows: antigen-binding ELISA; HMBD-002 in F8, day 10 at 40°C.
Assay [13] shares this target. Kind of assay: antigen-binding ELISA; HMBD-002 in F8, day 20 at 40°C.
Assay [14] has the same target. The assay is described as follows: antigen-binding ELISA; HMBD-002 in F9, day 20 at 40°C.
For a further assay, the target named is T5, human B7H4 (human, UniProt Q7Z7D3 25-258, limits assumed).
T5 construct: also called VTCN1
T5 sequence (looked up): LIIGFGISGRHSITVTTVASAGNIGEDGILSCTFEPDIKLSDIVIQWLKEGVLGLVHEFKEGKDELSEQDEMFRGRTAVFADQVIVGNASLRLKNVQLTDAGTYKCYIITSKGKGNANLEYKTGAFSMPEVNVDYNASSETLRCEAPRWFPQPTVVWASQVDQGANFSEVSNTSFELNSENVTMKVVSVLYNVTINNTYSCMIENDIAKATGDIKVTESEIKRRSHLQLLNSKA
The assay is described as follows: ELISA, plate coated with human B7H4, antibody titrated.

The target of the next assay is T6, human B7H7 (human, UniProt Q9UM44 23-344).
T6 construct: also called HHLA2
T6 sequence (looked up): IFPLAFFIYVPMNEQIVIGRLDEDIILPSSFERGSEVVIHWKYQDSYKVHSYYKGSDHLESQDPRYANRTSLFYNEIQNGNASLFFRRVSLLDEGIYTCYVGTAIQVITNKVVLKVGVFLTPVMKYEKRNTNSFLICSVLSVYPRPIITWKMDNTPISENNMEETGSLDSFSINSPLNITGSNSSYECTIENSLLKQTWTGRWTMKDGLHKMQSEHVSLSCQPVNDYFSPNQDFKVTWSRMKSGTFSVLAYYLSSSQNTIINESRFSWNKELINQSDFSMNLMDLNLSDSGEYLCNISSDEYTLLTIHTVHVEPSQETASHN
Kind of assay: ELISA, plate coated with human B7H7, antibody titrated.

Assay [15] deals with T2, recombinant cynomolgus macaque VISTA …. Kind of assay: ELISA, NHP VISTA-HIS protein coated; ELISA, NHP (cynomolgus) VISTA-HIS.
Description: (§3) 384-well plates were coated with 1 μg/ml of target antigen diluted in PBS for 16 hrs at 4° C. […] After washing, plates were developed with colorimetric detection substrate 3,3′,5,5′-tetramethylbenzidine (Turbo-TMB; Pierce) for 10 min.
The target in assay [16] is T1, recombinant human VISTA (His-tagged). The assay is described as follows: antigen-binding ELISA; reference standard run with the day 30 samples.

A value given as a limit tells only on which side of the number the result lay.

T4 sequence (Q08722 19-139 limits assumed): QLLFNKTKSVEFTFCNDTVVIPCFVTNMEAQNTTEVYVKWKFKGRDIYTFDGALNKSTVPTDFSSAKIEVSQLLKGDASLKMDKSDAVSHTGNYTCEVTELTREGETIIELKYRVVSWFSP
Description for human B7H4: as §3
Description for human B7H7: as §3
Description for human CD47: Finally, the biosensors were incubated for 120 sec in PBS pH 7.2 to obtain the dissociation curves. Kinetic and affinity constants were calculated by global fitting of the association and dissociation data to a 1:1 binding model.

B1: anti-VISTA clone 4M2-C12 IgG1 (antibody)
heavy: not shown
light: DIVITQTPAILSTSPGEKVTMTCRASSSVGYIHWYQQKPGSSPKPWIYATSNLASGVPARFSGSGSGTSNSLTITRVEAEDAATYYCQQWSSYPPITFGGGTKLEVKRTVAAPSVFIFPPSDEQLKSGTASVVCLLNNFYPREAKVQWKVDNALQSGNSQESVTEQDSKDSTYSLSSTLTLSKADYEKHKVYACEVTHQGLSSPVTKSFNRGEC
notes: mouse variable regions on human IgG1/kappa constant regions; also called V4; V4pr
For the molecule B1, the “EC50 (read off the curve)” value in [1] was around 10 pM. For the same molecule, the dissociation constant (Kd) was below 1 pM in assay [2] and 113 nM in assay [3]. Moreover, the binding result in the assay with human CD47 is recorded as “no binding (tested: 1500 nM)”. In [4], the dissociation rate constant (koff) is below 4.54e-07 s⁻¹.

B2: V4-C26 hIgG4 (antibody)
heavy: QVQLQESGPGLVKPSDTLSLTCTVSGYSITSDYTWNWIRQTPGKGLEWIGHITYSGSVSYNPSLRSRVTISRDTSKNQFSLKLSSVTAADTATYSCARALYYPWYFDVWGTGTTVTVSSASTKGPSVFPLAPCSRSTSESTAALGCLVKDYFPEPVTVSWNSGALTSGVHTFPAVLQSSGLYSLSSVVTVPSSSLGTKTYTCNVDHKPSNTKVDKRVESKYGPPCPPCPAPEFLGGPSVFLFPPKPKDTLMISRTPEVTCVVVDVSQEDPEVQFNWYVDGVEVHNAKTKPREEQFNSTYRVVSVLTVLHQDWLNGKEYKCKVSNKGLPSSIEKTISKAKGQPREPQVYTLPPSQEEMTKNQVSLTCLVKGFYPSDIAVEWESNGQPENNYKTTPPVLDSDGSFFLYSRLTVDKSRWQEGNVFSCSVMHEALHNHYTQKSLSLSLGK
light: EIVLTQSPATLSLSPGERATLSCRASSSVGYIHWYQQKPGQAPRPIIYTTSNRATGIPARFSGSGSGTDNTLTISSLEPEDSAVYYCQQWSSYPPITFGGGTKLEVKRTVAAPSVFIFPPSDEQLKSGTASVVCLLNNFYPREAKVQWKVDNALQSGNSQESVTEQDSKDSTYSLSSTLTLSKADYEKHKVYACEVTHQGLSSPVTKSFNRGEC
notes: human IgG4 (S228P)/kappa format; also called HMBD-002; HMBD-002-V4C26
In the case of B2, the EC50 was 0.0308 nM in [5]; 0.031 nM in [6]; 0.0289 nM in assay [7]; 0.0395 nM in assay [8]; 0.0315 nM in assay [9]; 0.0202 nM in assay [10]. Further, the concentration giving a half-maximal response (EC50) in assay [11] was found to be 0.0339 nM; in assay [12] it was 0.028 nM; in assay [13], 0.0248 nM; in assay [14], 0.0223 nM; in assay [15], 0.0121 nM; in [16], 0.0527 nM. The binding result in the assay with human B7H4 and with human B7H7 was “no binding (tested: about 3e-8 M)” in each case.
